From US20110143993A1, “ENDOTHELIAL BASEMENT MEMBRANE TARGETING PEPTIDE LIGANDS” (The Brigham and Women's Hospital, Inc., priority 2009, published 2011)
No end group written: not given here.

Experiments:
[1] = target: Matrigel growth factor reduced LDEV free (basement membrane extract rich in collagen IV and laminin); assay: competition ELISA: synthetic peptide (10^-5-10^-10 M) against 10^9 pfu cognate phage clone on Matrigel-coated plate, anti-M13/ABTS
[2] = target: human collagen IV (human) (UniProt P02462); assay: phage titer count of eluted phage, input 10^12/mL p.f.u., against random library R0, n=3
[3] = target: Matrigel growth factor reduced LDEV free (basement membrane extract rich in collagen IV and laminin); assay: competition of phage-displayed peptide against synthetic peptide on Matrigel

| Binder | IC50 [1] | fold binding compared to the library (R0), phage titer [2] | IC50 [3] |
| --- | --- | --- | --- |
| KVWSLPQGGGC-NH2 [synthetic peptide modeled after phage clone A-8 (KVWSLPQ with C-terminal GGGC linker, amidated)] | 1200 nM |  |  |
| KLWVLPK (peptide, not shown: large carriers) [phage clone C-11 (KLWVLPK displayed on pIII of M13 phage)] |  | 900 fold |  |
| KIWKLPQGGGC-NH2 [synthetic peptide modeled after phage clone C-10 (KIWKLPQ with C-terminal GGGC linker, amidated)] | 917 nM |  |  |
| KIFVWPYGGGC-NH2 [synthetic peptide modeled after phage clone A-9 (KIFVWPY with C-terminal GGGC linker, amidated)] | 551 nM |  |  |
| KLWVLPKGGGC-NH2 [synthetic peptide modeled after phage clone C-11 (…-Am)] | 117 nM |  | 114 nM |
